This note sets out measurements from patent publication US20160136236A1 (MODERNA THERAPEUTICS, published 2016).

This assay has as its target T1, BODIPY-labeled LDL (low density lipoprotein) (UniProt P04114 28-4563, BODIPY fluorescent label, site not stated).
T1 construct: A lipoprotein particle (protein and lipid), not a pure protein; also called BODIPY-LDL; LDL-BODIPY
Kind of assay: FACS; increasing amounts of BODIPY-LDL for 1 h at 37 C on HEK293 cells transfected with LDLR mRNA. Background: A flow cytometer gives signals particle by particle.

B1: wild type (WT) human low density lipoprotein receptor (LDLR) (receptor)
chain: not shown
notes: also called LDL receptor; wild-type LDLR
One may read the Kd as the equilibrium constant for the complex coming apart. Higher therefore signals weaker binding. The molecule B1 showed a Kd of about 0.06 µg/mL.
